# Reference: article PMC5727297
# Target: WT SOD1, purified from E. coli (human) (UniProt P00441)
# Assay: NMR titration; 100 uM WT [U-15N]-apo-SOD1^SH in PBS pH 7.4 titrated with unlabelled CCS-D2 up to three equivalents, anaerobic, 298 K, 900 MHz
# Chain of UniProt P00441 (P00441 whole entry): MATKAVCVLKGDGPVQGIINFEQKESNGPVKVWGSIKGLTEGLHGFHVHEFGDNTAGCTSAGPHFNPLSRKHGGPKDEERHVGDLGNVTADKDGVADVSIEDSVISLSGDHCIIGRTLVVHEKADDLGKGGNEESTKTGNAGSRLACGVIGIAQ
substance,measurement,value
"CCS-D2, purified from E. coli (domain or fragment)",percent of apo-SOD1^SH still free with 1 equivalent of CCS-D2,20%
